Earlier results on one substance are cited in paper PMC7696831.

pKd: −log10 of the molar value.

The term pKd denotes the Kd on a negative log10 scale, so that one unit is a factor of ten.

The series deals with SARS-CoV spike protein (Severe acute respiratory syndrome coronavirus) (UniProt P59594).

Sequence of angiotensin-converting enzyme 2 (Q9BYF1 18-708): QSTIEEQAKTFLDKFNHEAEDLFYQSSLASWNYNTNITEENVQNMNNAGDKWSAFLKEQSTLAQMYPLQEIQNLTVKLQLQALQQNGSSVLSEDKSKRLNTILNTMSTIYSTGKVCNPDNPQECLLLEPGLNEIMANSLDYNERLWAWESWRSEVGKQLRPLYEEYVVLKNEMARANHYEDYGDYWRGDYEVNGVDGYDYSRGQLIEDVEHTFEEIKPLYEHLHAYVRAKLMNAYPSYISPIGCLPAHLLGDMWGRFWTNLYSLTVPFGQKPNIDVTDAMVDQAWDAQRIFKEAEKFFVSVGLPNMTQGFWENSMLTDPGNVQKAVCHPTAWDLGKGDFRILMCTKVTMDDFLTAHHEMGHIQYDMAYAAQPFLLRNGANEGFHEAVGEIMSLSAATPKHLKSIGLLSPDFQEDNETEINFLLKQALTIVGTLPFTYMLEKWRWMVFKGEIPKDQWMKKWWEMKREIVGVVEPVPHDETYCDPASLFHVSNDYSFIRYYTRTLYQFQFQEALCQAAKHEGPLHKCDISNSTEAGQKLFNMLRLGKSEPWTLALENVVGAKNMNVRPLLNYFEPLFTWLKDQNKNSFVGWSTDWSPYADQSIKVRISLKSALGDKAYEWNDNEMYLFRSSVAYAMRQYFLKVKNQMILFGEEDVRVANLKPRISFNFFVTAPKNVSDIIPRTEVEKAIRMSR

For “angiotensin-converting enzyme 2 (from UniProt Q9BYF1)”, the pKd is 6.49.
